From the supplement of paper PMC10567573

B1: SCNN1D (parent)
chain: FLGHHSFSVRPGTEATISIREDEV

Variants of: B1
Assay: protein stability index of a GFP-peptide fusion (GPS, HEK-293T) (PSI 1-6); higher = more stable
Conditions: c terminus: a fixed tail appended
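Note: lentivirally expressed fusions sorted by FACS into six bins by GFP to DsRed ratio, PSI derived from sequencing read proportions per bin multiplied by bin number.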

Variant | protein stability index
FLGHHSFSVRPGTEATISIREDEE [V24E] | 2.27
FLGHHSFSVRPGTEATISIREDED [V24D] | 2.15
FLGHHSFSVRPGTEATISIREDEF [V24F] | 1.76
FLGHHSFSVRPGTEATISIREDEC [V24C] | 1.81
FLGHHSFSVRPGTEATISIREDEA [V24A] | 1.8
FLGHHSFSVRPGTEATISIRFDEV [E21F] | 2.3
FLGHHSFSVRPGTEATISIRVDEV [E21V] | 3.42
FLGHHSFSVRPGTEATISIRYDEV [E21Y] | 2.52
FLGHHSFSVRPGTEATISIRNDEV [E21N] | 2.11
FLGHHSFSVRPGTEATISIRPDEV [E21P] | 2.33
FLGHHSFSVRPGTEATISIRLDEV [E21L] | 2.48
FLGHHSFSVRPGTEATISIRWDEV [E21W] | 2.45
FLGHHSFSVRPGTEATISIRTDEV [E21T] | 2.55
FLGHHSFSVRPGTEATISIRRDEV [E21R] | 2.6
FLGHHSFSVRPGTEATISIRIDEV [E21I] | 3.27
FLGHHSFSVRPGTEATISIRGDEV [E21G] | 1.33
FLGHHSFSVRPGTEATISIRMDEV [E21M] | 2.08
FLGHHSFSVRPGTEATISIRCDEV [E21C] | 1.68
FLGHHSFSVRPGTEATISIRSDEV [E21S] | 1.8
FLGHHSFSVRPGTEATISIRKDEV [E21K] | 1.44
FLGHHSFSVRPGTEATISIRDDEV [E21D] | 1.56
FLGHHSFSVRPGTEATISIRADEV [E21A] | 2.25
FLGHHSFSVRPGTEATISIRHDEV [E21H] | 1.48
FLGHHSFSVRPGTEATISIRQDEV [E21Q] | 1.74

Variant | protein stability index
FLGHHSFSVRPGTEATISIREVEV [D22V] | 1.57
FLGHHSFSVRPGTEATISIREYEV [D22Y] | 3.14
FLGHHSFSVRPGTEATISIREKEV [D22K] | 2.04
FLGHHSFSVRPGTEATISIREPEV [D22P] | 1.74
FLGHHSFSVRPGTEATISIREAEV [D22A] | 1.89
FLGHHSFSVRPGTEATISIRESEV [D22S] | 1.35
FLGHHSFSVRPGTEATISIREQEV [D22Q] | 1.39
FLGHHSFSVRPGTEATISIREREV [D22R] | 2.4
FLGHHSFSVRPGTEATISIREMEV [D22M] | 2.45
FLGHHSFSVRPGTEATISIREEEV [D22E] | 2.11
FLGHHSFSVRPGTEATISIRELEV [D22L] | 1.51
FLGHHSFSVRPGTEATISIRETEV [D22T] | 2.07
FLGHHSFSVRPGTEATISIRECEV [D22C] | 2.21
FLGHHSFSVRPGTEATISIREFEV [D22F] | 1.73
FLGHHSFSVRPGTEATISIREWEV [D22W] | 1.77
FLGHHSFSVRPGTEATISIREHEV [D22H] | 1.79
FLGHHSFSVRPGTEATISIRENEV [D22N] | 2.23
FLGHHSFSVRPGTEATISIREIEV [D22I] | 2.39
FLGHHSFSVRPGTEATIKIREDEV [S18K] | 1.67
FLGHHSFSVRPGTEATILIREDEV [S18L] | 2.2
FLGHHSFSVRPGTEATIMIREDEV [S18M] | 1.55
FLGHHSFSVRPGTEATIGIREDEV [S18G] | 1.47
FLGHHSFSVRPGTEATIQIREDEV [S18Q] | 1.79
FLGHHSFSVRPGTEATIYIREDEV [S18Y] | 1.71

Variant | protein stability index
FLGHHSFSVRPGTEATIVIREDEV [S18V] | 1.25
FLGHHSFSVRPGTEATINIREDEV [S18N] | 1.57
FLGHHSFSVRPGTEATIHIREDEV [S18H] | 1.33
FLGHHSFSVRPGTEATIIIREDEV [S18I] | 1.96
FLGHHSFSVRPGTEATIPIREDEV [S18P] | 1.8
FLGHHSFSVRPGTEATITIREDEV [S18T] | 1.66
FLGHHSFSVRPGTEATIAIREDEV [S18A] | 1.6
FLGHHSFSVRPGTEATIRIREDEV [S18R] | 2.22
FLGHHSFSVRPGTEATIDIREDEV [S18D] | 1.43
FLGHHSFSVRPGTEATIEIREDEV [S18E] | 2.49
FLGHHSFSVRPGTEATIFIREDEV [S18F] | 1.8
FLGHHSFSVRPGTPATISIREDEV [E14P] | 1.76
FLGHHSFSVRPGTYATISIREDEV [E14Y] | 1.19
FLGHHSFSVRPGTNATISIREDEV [E14N] | 1.82
FLGHHSFSVRPGTHATISIREDEV [E14H] | 2.11
FLGHHSFSVRPGTVATISIREDEV [E14V] | 2.18
FLGHHSFSVRPGTRATISIREDEV [E14R] | 2.1
FLGHHSFSVRPGTSATISIREDEV [E14S] | 1.77
FLGHHSFSVRPGTGATISIREDEV [E14G] | 2.31
FLGHHSFSVRPGTTATISIREDEV [E14T] | 2.24
FLGHHSFSVRPGTLATISIREDEV [E14L] | 1.92
FLGHHSFSVRPGTQATISIREDEV [E14Q] | 2.13
FLGHHSFSVRPGTIATISIREDEV [E14I] | 1.77
FLGHHSFSVRPGTKATISIREDEV [E14K] | 1.93

Variant | protein stability index
FLGHHSFSVRPGTFATISIREDEV [E14F] | 1.37
FLGHHSFSVRPGTMATISIREDEV [E14M] | 1.25
FLGHHSFSVRPGTEATISIEEDEV [R20E] | 2.1
FLGHHSFSVRPGTEATISIGEDEV [R20G] | 2.3
FLGHHSFSVRPGTEATISIAEDEV [R20A] | 2.3
FLGHHSFSVRPGTEATISIFEDEV [R20F] | 3.02
FLGHHSFSVRPGTEATISIPEDEV [R20P] | 1.79
FLGHHSFSVRPGTEATISIKEDEV [R20K] | 1.73
FLGHHSFSVRPGTEATISISEDEV [R20S] | 2.27
FLGHHSFSVRPGTEATISICEDEV [R20C] | 2.24
FLGHHSFSVRPGTEATISIMEDEV [R20M] | 1.5
FLGHHSFSVRPGTEATISINEDEV [R20N] | 1.49
FLGHHSFSVRPGTEATISITEDEV [R20T] | 1.79
FLGHHSFSVRPGTEATISILEDEV [R20L] | 1.52
FLGHHSFSVRPGTEATISIVEDEV [R20V] | 1.65
FLGHHSFSVRPGTEATISIHEDEV [R20H] | 1.67
FLGHHSFSVRPGTEATISIDEDEV [R20D] | 1.9
FLGHHSFSVRPGTEATISIYEDEV [R20Y] | 1.77
FLGHHSFSVRPGTEATISIIEDEV [R20I] | 2.5
FLGHHSFSVRPGTEATISIWEDEV [R20W] | 1.42
FLGHHSFSVRPGTEATISIQEDEV [R20Q] | 1.79
FLGHHSFSVRPGTEATVSIREDEV [I17V] | 1.68
